Measurements as given in patent US7084111 (UNIVERSITY OF FLORIDA RESEARCH FOUNDATION, dated 2006).
Bridges are numbered along the chain shown (N, C = ends). Where no end group is shown, it is not given here. [ ]: non-standard residue; d: D form. Nle = CCCC[C@H](N)C(=O)O; Dap = NC[C@H](N)C(=O)O

What was measured:
Experiment in all cases: cell-based or functional assay
[1] = biological target: T1, mouse melanocortin-3 receptor (mouse, UniProt P33033 1-323)
[2] = biological target: mouse melanocortin-5 receptor (mouse, UniProt P41149 1-325)
mouse melanocortin-5 receptor, sequence (P41149 whole entry): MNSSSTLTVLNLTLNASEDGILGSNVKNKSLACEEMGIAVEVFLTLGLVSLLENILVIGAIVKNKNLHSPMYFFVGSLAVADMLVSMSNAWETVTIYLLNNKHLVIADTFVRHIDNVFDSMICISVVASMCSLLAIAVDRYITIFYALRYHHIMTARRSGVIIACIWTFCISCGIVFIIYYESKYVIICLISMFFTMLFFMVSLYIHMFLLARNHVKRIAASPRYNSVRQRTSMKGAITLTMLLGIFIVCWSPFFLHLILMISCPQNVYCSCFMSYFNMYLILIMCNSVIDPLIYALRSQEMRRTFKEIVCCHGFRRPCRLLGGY

[3] = biological target: mouse melanocortin-4 receptor (mouse, UniProt P56450 1-332)
mouse melanocortin-4 receptor, sequence (P56450 whole entry): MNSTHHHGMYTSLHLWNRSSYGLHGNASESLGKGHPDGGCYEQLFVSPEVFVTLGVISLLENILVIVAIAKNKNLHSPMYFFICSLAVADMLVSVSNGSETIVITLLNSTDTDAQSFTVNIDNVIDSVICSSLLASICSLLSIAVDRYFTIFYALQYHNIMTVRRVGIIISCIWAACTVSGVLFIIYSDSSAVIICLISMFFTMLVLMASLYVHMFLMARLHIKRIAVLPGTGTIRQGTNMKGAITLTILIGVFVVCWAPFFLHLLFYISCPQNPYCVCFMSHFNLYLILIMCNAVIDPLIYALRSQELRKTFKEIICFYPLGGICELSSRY

[4] = biological target: T2, mouse melanocortin-1 receptor (mouse, UniProt Q01727 1-315)
T2 sequence (Q01727 whole entry): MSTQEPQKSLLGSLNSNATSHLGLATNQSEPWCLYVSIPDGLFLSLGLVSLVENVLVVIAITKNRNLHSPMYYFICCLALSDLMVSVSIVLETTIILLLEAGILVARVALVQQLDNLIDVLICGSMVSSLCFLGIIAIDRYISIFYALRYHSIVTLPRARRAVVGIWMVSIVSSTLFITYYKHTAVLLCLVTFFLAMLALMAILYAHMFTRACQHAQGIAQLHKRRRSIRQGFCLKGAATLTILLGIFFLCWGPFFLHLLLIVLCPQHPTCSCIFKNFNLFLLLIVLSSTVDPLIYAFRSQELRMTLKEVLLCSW

[5] = biological target: T1, mouse melanocortin-3 receptor; remark: listed apart in the source
[6] = biological target: T2, mouse melanocortin-1 receptor; remark: listed apart in the source

T1 sequence (P33033 whole entry): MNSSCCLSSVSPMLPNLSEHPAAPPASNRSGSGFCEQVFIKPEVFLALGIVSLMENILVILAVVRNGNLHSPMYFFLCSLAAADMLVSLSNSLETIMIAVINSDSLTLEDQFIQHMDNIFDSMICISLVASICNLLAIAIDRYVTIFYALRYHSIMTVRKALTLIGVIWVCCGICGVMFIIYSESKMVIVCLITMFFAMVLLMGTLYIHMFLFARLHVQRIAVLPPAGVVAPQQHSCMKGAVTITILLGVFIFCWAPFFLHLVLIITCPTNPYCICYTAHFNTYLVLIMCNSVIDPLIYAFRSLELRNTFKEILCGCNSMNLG

| Binder | EC50 (agonist) [3] | EC50 (agonist) [1] | EC50 (agonist) [2] | EC50 (agonist) [4] | further results |
| --- | --- | --- | --- | --- | --- |
| Ac-SYS[Nle]EHFFRGKPV-NH2 (SMILES CCCC[C@H](NC(=O)[C@H](CO)NC(=O)[C@H](Cc1ccc(O)cc1)NC(=O)[C@H](CO)NC(C)=O)C(=O)N[C@@H](CCC(=O)O)C(=O)N[C@@H](Cc1c[nH]cn1)C(=O)N[C@@H](Cc1ccccc1)C(=O)N[C@@H](Cc1ccccc1)C(=O)N[C@@H](CCCNC(=N)N)C(=O)NCC(=O)N[C@@H](CCCCN)C(=O)N1CCC[C@H]1C(=O)N[C@H](C(N)=O)C(C)C) [SEQ ID NO:14 (Ac-Ser-Tyr-Ser-Nle-Glu-His-Phe-Phe-Arg-Gly-Lys-Pro-Val)] | > 100 µM |  |  |  | EC50 (agonist; Partial agonist) [1]: 20.5 µM; EC50 (agonist; Partial agonist) [2]: 24.4 µM; EC50 (agonist; Partial agonist) [4]: 7.22 µM |
| Ac-[Nle]DHRFFK-NH2 (lactam 2-7; SMILES CCCC[C@H](NC(C)=O)C(=O)N[C@H]1CC(=O)NCCCC[C@@H](C(N)=O)NC(=O)[C@H](Cc2ccccc2)NC(=O)[C@H](Cc2ccccc2)NC(=O)[C@H](CCCNC(=N)N)NC(=O)[C@H](Cc2c[nH]cn2)NC1=O) [SEQ ID NO:20 (Ac-Nle-c[Asp-His-Arg-Phe-Phe-Lys])] | > 100 µM | > 100 µM | > 100 µM |  | EC50 (agonist; Partial agonist) [4]: 38.3 µM |
| YDHXRXNAFXY (Asp-Dpr side chain lactam bridge; Dpr; DPhe; Tic; C-terminal amide (amide resin)) [SEQ ID NO:42 (Tyr-c[Asp-His-DPhe-Arg-Tic-Asn-Ala-Phe-Dpr]-Tyr)] | 0.26 µM | 3.4 µM | 0.0427 µM | 0.0216 µM |  |
| YDWRFNAF[Dap]Y-NH2 (lactam 2-9; N-terminus assumed; SMILES C[C@@H]1NC(=O)[C@H](CC(N)=O)NC(=O)[C@H](Cc2ccccc2)NC(=O)[C@H](CCCNC(=N)N)NC(=O)[C@H](Cc2c[nH]c3ccccc23)NC(=O)[C@@H](NC(=O)[C@@H](N)Cc2ccc(O)cc2)CC(=O)NC[C@@H](C(=O)N[C@@H](Cc2ccc(O)cc2)C(N)=O)NC(=O)[C@H](Cc2ccccc2)NC1=O) [SEQ ID NO:4 (Tyr-c[Asp-Trp-Arg-Phe-Asn-Ala-Phe-Dpr]-Tyr)] |  | > 100 µM | > 100 µM | 13.5 µM | EC50 (agonist; Partial agonist) [3]: 15.9 µM |
| YDHXRXNAFXY (Asp-Dpr side chain lactam bridge; Dpr; DPhe; DNal(2′); C-terminal amide (amide resin)) [SEQ ID NO:40 (Tyr-c[Asp-His-DPhe-Arg-DNal(2′)-Asn-Ala-Phe-Dpr]-Tyr)] | 0.00067 µM | 0.0065 µM | 0.00095 µM | 0.0002 µM |  |
| Ac-SYS[Nle]EHR[dF]FGKPV-NH2 (SMILES CCCC[C@H](NC(=O)[C@H](CO)NC(=O)[C@H](Cc1ccc(O)cc1)NC(=O)[C@H](CO)NC(C)=O)C(=O)N[C@@H](CCC(=O)O)C(=O)N[C@@H](Cc1c[nH]cn1)C(=O)N[C@@H](CCCNC(=N)N)C(=O)N[C@H](Cc1ccccc1)C(=O)N[C@@H](Cc1ccccc1)C(=O)NCC(=O)N[C@@H](CCCCN)C(=O)N1CCC[C@H]1C(=O)N[C@H](C(N)=O)C(C)C) [SEQ ID NO:17 (Ac-Ser-Tyr-Ser-Nle-Glu-His-Arg-DPhe-Phe-Gly-Lys-Pro-Val-NH2)] |  | 6.21 µM | 0.45 µM | 0.00728 µM | fold decrease in agonist potency, fold change against SEQ ID NO:15 [5]: 13 fold; agonist potency, fold change against SEQ ID NO:15 [6]: 8 fold |
| Ac-SYS[Nle]EFFRGKPV-NH2 (SMILES CCCC[C@H](NC(=O)[C@H](CO)NC(=O)[C@H](Cc1ccc(O)cc1)NC(=O)[C@H](CO)NC(C)=O)C(=O)N[C@@H](CCC(=O)O)C(=O)N[C@@H](Cc1ccccc1)C(=O)N[C@@H](Cc1ccccc1)C(=O)N[C@@H](CCCNC(=N)N)C(=O)NCC(=O)N[C@@H](CCCCN)C(=O)N1CCC[C@H]1C(=O)N[C@H](C(N)=O)C(C)C) [SEQ ID NO:13 (Ac-Ser-Tyr-Ser-Nle-Glu-Phe-Phe-Arg-Gly-Lys-Pro-Val)] | > 100 µM | > 100 µM | > 100 µM |  | EC50 (agonist; Partial agonist) [4]: 19.9 µM |
| YDAAANAF[Dap]Y-NH2 (lactam 2-9; N-terminus assumed; SMILES C[C@@H]1NC(=O)[C@H](C)NC(=O)[C@@H](NC(=O)[C@@H](N)Cc2ccc(O)cc2)CC(=O)NC[C@@H](C(=O)N[C@@H](Cc2ccc(O)cc2)C(N)=O)NC(=O)[C@H](Cc2ccccc2)NC(=O)[C@H](C)NC(=O)[C@H](CC(N)=O)NC(=O)[C@H](C)NC1=O) [SEQ ID NO:2 (Tyr-c[Asp-Ala-Ala-Ala-Asn-Ala-Phe-Dpr]-Tyr)] | > 100 µM | > 100 µM | > 100 µM | > 100 µM |  |
| YCRF[dF]NAFCY-NH2 (disulfide 2-9; N-terminus assumed; SMILES C[C@@H]1NC(=O)[C@H](CC(N)=O)NC(=O)[C@@H](Cc2ccccc2)NC(=O)[C@H](Cc2ccccc2)NC(=O)[C@H](CCCNC(=N)N)NC(=O)[C@@H](NC(=O)[C@@H](N)Cc2ccc(O)cc2)CSSC[C@@H](C(=O)N[C@@H](Cc2ccc(O)cc2)C(N)=O)NC(=O)[C@H](Cc2ccccc2)NC1=O) [SEQ ID NO:1 (Tyr-c[Cys-Arg-Phe-DPhe-Asn-Ala-Phe-Cys]-Tyr)] |  | > 100 µM | 0.239 µM | 0.0613 µM | pA2 (antagonist; Partial agonist) [3]: 6.1 |
| Ac-[Nle]DHAAAK-NH2 (lactam 2-7; SMILES CCCC[C@H](NC(C)=O)C(=O)N[C@H]1CC(=O)NCCCC[C@@H](C(N)=O)NC(=O)[C@H](C)NC(=O)[C@H](C)NC(=O)[C@H](C)NC(=O)[C@H](Cc2c[nH]cn2)NC1=O) [SEQ ID NO:19 (Ac-Nle-c[Asp-His-Ala-Ala-Ala-Lys])] | > 100 µM | > 100 µM | > 100 µM | > 100 µM |  |
| YDHRFFNAF[Dap]Y-NH2 (lactam 2-10; N-terminus assumed; SMILES C[C@@H]1NC(=O)[C@H](CC(N)=O)NC(=O)[C@H](Cc2ccccc2)NC(=O)[C@H](Cc2ccccc2)NC(=O)[C@H](CCCNC(=N)N)NC(=O)[C@H](Cc2c[nH]cn2)NC(=O)[C@@H](NC(=O)[C@@H](N)Cc2ccc(O)cc2)CC(=O)NC[C@@H](C(=O)N[C@@H](Cc2ccc(O)cc2)C(N)=O)NC(=O)[C@H](Cc2ccccc2)NC1=O) [SEQ ID NO:8 (Tyr-c[Asp-His-Arg-Phe-Phe-Asn-Ala-Phe-Dpr]-Tyr)] | > 100 µM |  | 100 µM | 13.3 µM | fold decrease in agonist potency, fold change against SEQ ID NO:3 [6]: 8 fold |
| Ac-SYS[Nle]EHAAAGKPV-NH2 (SMILES CCCC[C@H](NC(=O)[C@H](CO)NC(=O)[C@H](Cc1ccc(O)cc1)NC(=O)[C@H](CO)NC(C)=O)C(=O)N[C@@H](CCC(=O)O)C(=O)N[C@@H](Cc1c[nH]cn1)C(=O)N[C@@H](C)C(=O)N[C@@H](C)C(=O)N[C@@H](C)C(=O)NCC(=O)N[C@@H](CCCCN)C(=O)N1CCC[C@H]1C(=O)N[C@H](C(N)=O)C(C)C) [SEQ ID NO:12 (Ac-Ser-Tyr-Ser-Nle-Glu-His-Ala-Ala-Ala-Gly-Lys-Pro-Val)] | > 100 µM | > 100 µM | > 100 µM | > 100 µM |  |
| Ac-SYS[Nle]YDRFFNAF[Dap]YKPV-NH2 (lactam 6-13; SMILES CCCC[C@H](NC(=O)[C@H](CO)NC(=O)[C@H](Cc1ccc(O)cc1)NC(=O)[C@H](CO)NC(C)=O)C(=O)N[C@@H](Cc1ccc(O)cc1)C(=O)N[C@H]1CC(=O)NC[C@@H](C(=O)N[C@@H](Cc2ccc(O)cc2)C(=O)N[C@@H](CCCCN)C(=O)N2CCC[C@H]2C(=O)N[C@H](C(N)=O)C(C)C)NC(=O)[C@H](Cc2ccccc2)NC(=O)[C@H](C)NC(=O)[C@H](CC(N)=O)NC(=O)[C@H](Cc2ccccc2)NC(=O)[C@H](Cc2ccccc2)NC(=O)[C@H](CCCNC(=N)N)NC1=O) [SEQ ID NO:11 (Ac-Ser-Tyr-Ser-Nle-Tyr-c[Asp-Arg-Phe-Phe-Asn-Ala-Phe-Dpr]-Tyr-Lys-Pro-Val)] |  |  | > 100 µM | 1.96 µM | pA2 (antagonist) [1]: 6.2; pA2 (antagonist) [3]: 6.2 |
| YDHXRXNAFXY (Asp-Dpr side chain lactam bridge; Dpr; DPhe; Nal(2′); C-terminal amide (amide resin)) [SEQ ID NO:39 (Tyr-c[Asp-His-DPhe-Arg-Nal(2′)-Asn-Ala-Phe-Dpr]-Tyr)] | 0.00027 µM | 0.00556 µM | 0.00193 µM | 0.00053 µM |  |
| Ac-SYS[Nle]EHRFFGKPV-NH2 [SEQ ID NO:15 (Ac-Ser-Tyr-Ser-Nle-Glu-His-Arg-Phe-Phe-Gly-Lys-Pro-Val)] | 0.93 µM | 0.48 µM | 0.327 µM | 0.0599 µM |  |
| YDHXRXNAFXY (Asp-Dpr side chain lactam bridge; Dpr; DPhe; Bip; C-terminal amide (amide resin)) [SEQ ID NO:41 (Tyr-c[Asp-His-DPhe-Arg-Bip-Asn-Ala-Phe-Dpr]-Tyr)] | 0.0426 µM | 0.45 µM | 0.00343 µM | 0.0116 µM |  |
